Earlier results in publication PMC6188814.

Target: ALDH7A1 (Homo sapiens) (UniProt P49419)
Experiment: analytical ultracentrifugation

Substance: ALDH7A1 (from UniProt P49419)
- Kd: 16 µM
